Measured values: the supplement of paper PMC5998384

Experiments:
HeLa Kyoto [1] = experiment: solubility in G1/S (NP-40 vs SDS abundance) (log2 ratio); higher = more soluble; conditions: cell cycle stage: G1/S
HeLa Kyoto [2] = experiment: solubility change mitosis vs G1/S (difference of NP-40 vs SDS log2 ratios) (log2 ratio difference); higher = more soluble in mitosis
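Throughout, for solubility change mitosis vs G1/S (difference of NP-40 vs SDS log2 ratios): synchronized HeLa Kyoto cells (double thymidine block for G1/S, nocodazole release for mitosis), protein amounts in NP-40 versus SDS lysates quantified by mass spectrometry, three biological replicates.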
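Throughout, for solubility in G1/S (NP-40 vs SDS abundance): HeLa Kyoto cells arrested at G1/S by double thymidine block, proteins quantified by TMT10plex mass spectrometry in mild NP-40 versus SDS extracts, three biological replicates.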

Substance	solubility in G1/S (log2) (HeLa Kyoto [1])	solubility change mitosis (log2) (HeLa Kyoto [2])
MDSSIHLSSLISRHDDEATRTSTSEGLEEGEVEGETLLIVESEDQASVDLSHDQSGDSLNSDEGDVSWMEEQLSYFCDKCQKWIPASQLREQLSYLKGDNFFRFTCSDCSADGKEQYERLKLTWQQVVMLAMYNLSLEGSGRQGYFRWKEDICAFIEKHWTFLLGNRKKTSTWWSTVAGCLSVGSPMYFRSGAQEFGEPGWWKLVHNKPPTMKPEGEKLSASTLKIKAASKPTLDPIITVEGLRKRASRNPVESAMELKEKRSRTQEAKDIRRAQKEAAGFLDRSTSSTPVKFISRGRRPDVILEKGEVIDFSSLSSSDRTPLTSPSPSPSLDFSAPGTPASHSATPSLLSEADLIPDVMPPQALFHDDDEMEGDGVIDPGMEYVPPPAGSVASGPVVGVRKKVRGPEQIKQEVESEEEKPDRMDIDSEDTDSNTSLQTRAREKRKPQLEKDTKPKEPRYTPVSIYEEKLLLKRLEACPGAVAMTPEARRLKRKLIVRQAKRDRGLPLFDLDQVVNAALLLVDGIYGAKEGGISRLPAGQATYRTTCQDFRILDRYQTSLPSRKGFRHQTTKFLYRLVGSEDMAVDQSIVSPYTSRILKPYIRRDYETKPPKLQLLSQIRSHLHRSDPHWTPEPDAPLDYCYVRPNHIPTINSMCQEFFWPGIDLSECLQYPDFSVVVLYKKVIIAFGFMVPDVKYNEAYISFLFVHPEWRRAGIATFMIYHLIQTCMGKDVTLHVSASNPAMLLYQKFGFKTEEYVLDFYDKYYPLESTECKHAFFLRLRR [CSRP2BP]	0.391	0.153
MDTDSQRSHLSSFTMKLMDKFHSPKIKRTPSKKGKPAEVSVKIPEKPVNKEATDRFLPEGYPLPLDLEQQAVEFMSTSAVASRSQRQKNLSWLEEKEKEVVSALRYFKTIVDKMAIDKKVLEMLPGSASKVLEAILPLVQNDPRIQHSSALSSCYSRVYQSLANLIRWSDQVMLEGVNSEDKEMVTTVKGVIKAVLDGVKELVRLTIEKQGRPSPTSPVKPSSPASKPDGPAELPLTDREVEILNKTTGMSQSTELLPDATDEEVAPPKPPLPGIRVVDNSPPPALPPKKRQSAPSPTRVAVVAPMSRATSGSSLPVGINRQDFDVDCYAQRRLSGGSHSYGGESPRLSPCSSIGKLSKSDEQLSSLDRDSGQCSRNTSCETLDHYDPDYEFLQQDLSNADQIPQQTAWNLSPLPESLGESGSPFLGPPFQLPLGGHPQPDGPLAPGQQTDTPPALPEKKRRSAASQTADGSGCRVSYERHPSQYDNISGEDLQSTAPIPSVPYAPFAAILPFQHGGSSAPVEFVGDFTAPESTGDPEKPPPLPEKKNKHMLAYMQLLEDYSEPQPSMFYQTPQNEHIYQQKNKLLMEVYGFSDSFSGVDSVQELAPPPALPPKQRQLEPPAGKDGHPRDPSAVSGVPGKDSRDGSERAPKSPDALESAQSEEEVDELSLIDHNEIMSRLTLKQEGDDGPDVRGGSGDILLVHATETDRKDLVLYCEAFLTTYRTFISPEELIKKLQYRYEKFSPFADTFKKRVSKNTFFVLVRVVDELCLVELTEEILKLLMELVFRLVCNGELSLARVLRKNILDKVDQKKLLRCATSSQPLAARGVAARPGTLHDFHSHEIAEQLTLLDAELFYKIEIPEVLLWAKEQNEEKSPNLTQFTEHFNNMSYWVRSIIMLQEKAQDRERLLLKFIKIMKHLRKLNNFNSYLAILSALDSAPIRRLEWQKQTSEGLAEYCTLIDSSSSFRAYRAALSEVEPPCIPYLGLILQDLTFVHLGNPDYIDGKVNFSKRWQQFNILDSMRCFQQAHYDMRRNDDIINFFNDFSDHLAEEALWELSLKIKPRNITRRKTDREEKT [RAPGEF1]	-0.18	0.157
MDVDAEREKITQEIKELERILDPGSSGSHVEISESSLESDSEADSLPSEDLDPADPPISEEERWGEASNDEDDPKDKTLPEDPETCLQLNMVYQEVIQEKLAEANLLLAQNREQQEELMRDLAGSKGTKVKDGKSLPPSTYMGHFMKPYFKDKVTGVGPPANEDTREKAAQGIKAFEELLVTKWKNWEKALLRKSVVSDRLQRLLQPKLLKLEYLHQKQSKVSSELERQALEKQGREAEKEIQDINQLPEEALLGNRLDSHDWEKISNINFEGSRSAEEIRKFWQNSEHPSINKQEWSREEEERLQAIAAAHGHLEWQKIAEELGTSRSAFQCLQKFQQHNKALKRKEWTEEEDRMLTQLVQEMRVGSHIPYRRIVYYMEGRDSMQLIYRWTKSLDPGLKKGYWAPEEDAKLLQAVAKYGEQDWFKIREEVPGRSDAQCRDRYLRRLHFSLKKGRWNLKEEEQLIELIEKYGVGHWAKIASELPHRSGSQCLSKWKIMMGKKQGLRRRRRRARHSVRWSSTSSSGSSSGSSGGSSSSSSSSSEEDEPEQAQAGEGDRALLSPQYMVPDMDLWVPARQSTSQPWRGGAGAWLGGPAASLSPPKGSSASQGGSKEASTTAAAPGEETSPVQVPARAHGPVPRSAQASHSADTRPAGAEKQALEGGRRLLTVPVETVLRVLRANTAARSCTQKEQLRQPPLPTSSPGVSSGDSVARSHVQWLRHRATQSGQRRWRHALHRRLLNRRLLLAVTPWVGDVVVPCTQASQRPAVVQTQADGLREQLQQARLASTPVFTLFTQLFHIDTAGCLEVVRERKALPPRLPQAGARDPPVHLLQASSSAQSTPGHLFPNVPAQEASKSASHKGSRRLASSRVERTLPQASLLASTGPRPKPKTVSELLQEKRLQEARAREATRGPVVLPSQLLVSSSVILQPPLPHTPHGRPAPGPTVLNVPLSGPGAPAAAKPGTSGSWQEAGTSAKDKRLSTMQALPLAPVFSEAEGTAPAASQAPALGPGQISVSCPESGLGQSQAPAASRKQGLPEAPPFLPAAPSPTPLPVQPLSLTHIGGPHVATSVPLPVTWVLTAQGLLPVPVPAVVSLPRPAGTPGPAGLLATLLPPLTETRAAQGPRAPALSSSWQPPANMNREPEPSCRTDTPAPPTHALSQSPAEADGSVAFVPGEAQVAREIPEPRTSSHADPPEAEPPWSGRLPAFGGVIPATEPRGTPGSPSGTQEPRGPLGLEKLPLRQPGPEKGALDLEKPPLPQPGPEKGALDLGLLSQEGEAATQQWLGGQRGVRVPLLGSRLPYQPPALCSLRALSGLLLHKKALEHKATSLVVGGEAERPAGALQASLGLVRGQLQDNPAYLLLRARFLAAFTLPALLATLAPQGVRTTLSVPSRVGSESEDEDLLSELELADRDGQPGCTTATCPIQGAPDSGKCSASSCLDTSNDPDDLDVLRTRHARHTRKRRRLV [SNAPC4]	0.0147	-0.0345
MDVHDLFRRLGAGAKFDTRRFSADAARFQIGKRKYDFDSSEVLQGLDFFGNKKSVPGVCGASQTHQKPQNGEKKEESLTERKREQSKKKRKTMTSEIASQEEGATIQWMSSVEAKIEDKKVQRESKLTSGKLENLRKEKINFLRNKHKIHVQGTDLPDPIATFQQLDQEYKINSRLLQNILDAGFQMPTPIQMQAIPVMLHGRELLASAPTGSGKTLAFSIPILMQLKQPANKGFRALIISPTRELASQIHRELIKISEGTGFRIHMIHKAAVAAKKFGPKSSKKFDILVTTPNRLIYLLKQDPPGIDLASVEWLVVDESDKLFEDGKTGFRDQLASIFLACTSHKVRRAMFSATFAYDVEQWCKLNLDNVISVSIGARNSAVETVEQELLFVGSETGKLLAVRELVKKGFNPPVLVFVQSIERAKELFHELIYEGINVDVIHAERTQQQRDNTVHSFRAGKIWVLICTALLARGIDFKGVNLVINYDFPTSSVEYIHRIGRTGRAGNKGKAITFFTEDDKPLLRSVANVIQQAGCPVPEYIKGFQKLLSKQKKKMIKKPLERESISTTPKCFLEKAKDKQKKVTGQNSKKKVALEDKS [DDX52]	-1.37	1.04
MEAPEGGGGGPAARGPEGQPAPEARVHFRVARFIMEAGVKLGMRSIPIATACTIYHKFFCETNLDAYDPYLIAMSSIYLAGKVEEQHLRTRDIINVSNRYFNPSGEPLELDSRFWELRDSIVQCELLMLRVLRFQVSFQHPHKYLLHYLVSLQNWLNRHSWQRTPVAVTAWALLRDSYHGALCLRFQAQHIAVAVLYLALQVYGVEVPAEVEAEKPWWQVFNDDLTKPIIDNIVSDLIQIYTMDTEIP [FAM58A]	-0.46	0.235
MEASRCRLSPSGDSVFHEEMMKMRQAKLDYQRLLLEKRQRKKRLEPFMVQPNPEARLRRAKPRASDEQTPLVNCHTPHSNVILHGIDGPAAVLKPDEVHAPSVSSSVVEEDAENTVDTASKPGLQERLQKHDISESVNFDEETDGISQSACLERPNSASSQNSTDTGTSGSATAAQPADNLLGDIDDLEDFVYSPAPQGVTVRCRIIRDKRGMDRGLFPTYYMYLEKEENQKIFLLAARKRKKSKTANYLISIDPVDLSREGESYVGKLRSNLMGTKFTVYDRGICPMKGRGLVGAAHTRQELAAISYETNVLGFKGPRKMSVIIPGMTLNHKQIPYQPQNNHDSLLSRWQNRTMENLVELHNKAPVWNSDTQSYVLNFRGRVTQASVKNFQIVHKNDPDYIVMQFGRVADDVFTLDYNYPLCAVQAFGIGLSSFDSKLACE [TULP3]	0.0464	-0.00836
MED13L	0.0923	-0.119
MEEVREGHALGGGMEADGPASLQELPPSPRSPSPPPSPPPLPSPPSLPSPAAPEAPELPEPAQPSEAHARQLLLEEWGPLSGGLELPQRLTWKLLLLRRPLYRNLLRSPNPEGINIYEPAPPTGPTQRPLETLGNFRGWYIRTEKLQQNQSWTVKQQCVDLLAEGLWEELLDDEQPAITVMDWFEDSRLDACVYELHVWLLAADRRTVIAQHHVAPRTSGRGPPGRWVQVSHVFRHYGPGVRFIHFLHKAKNRMEPGGLRRTRVTDSSVSVQLRE [NCCRP1]	0.178	-0.0982
MEEVTTCSFNSPLFRQEDDRGITYRIPALLYIPPTHTFLAFAEKRSTRRDEDALHLVLRRGLRIGQLVQWGPLKPLMEATLPGHRTMNPCPVWEQKSGCVFLFFICVRGHVTERQQIVSGRNAARLCFIYSQDAGCSWSEVRDLTEEVIGSELKHWATFAVGPGHGIQLQSGRLVIPAYTYYIPSWFFCFQLPCKTRPHSLMIYSDDLGVTWHHGRLIRPMVTVECEVAEVTGRAGHPVLYCSARTPNRCRAEALSTDHGEGFQRLALSRQLCEPPHGCQGSVVSFRPLEIPHRCQDSSSKDAPTIQQSSPGSSLRLEEEAGTPSESWLLYSHPTSRKQRVDLGIYLNQTPLEAACWSRPWILHCGPCGYSDLAALEEEGLFGCLFECGTKQECEQIAFRLFTHREILSHLQGDCTSPGRNPSQFKSN [NEU3]	-0.0555	-0.0358
MEGRPPPEGRPPPRPRTGRAPRGRRRAVFAAVLHWSHITHLFENDRHFSHLSTLEREMAFRTEMGLYYSYFKTIVEAPSFLNGVWMIMNDKLTEYPLVINTLKRFNLYPEVILASWYRIYTKIMDLIGIQTKICWTVTRGEGLSPIESCEGLGDPACFYVAVIFILNGLMMALFFIYGTYLSGSRLGGLVTVLCFFFNHGECTRVMWTPPLRESFSYPFLVLQMLLVTHILRATKLYRGSLIALCISNVFFMLPWQFAQFVLLTQIASLFAVYVVGYIDICKLRKIIYIHMISLALCFVLMFGNSMLLTSYYASSLVIIWGILAMKPHFLKINVSELSLWVIQGCFWLFGTVILKYLTSKIFGIADDAHIGNLLTSKFFSYKDFDTLLYTCAAEFDFMEKETPLRYTKTLLLPVVLVVFVAIVRKIISDMWGVLAKQQTHVRKHQFDHGELVYHALQLLAYTALGILIMRLKLFLTPHMCVMASLICSRQLFGWLFCKVHPGAIVFAILAAMSIQGSANLQTQWNIVGEFSNLPQEELIEWIKYSTKPDAVFAGAMPTMASVKLSALRPIVNHPHYEDAGLRARTKIVYSMYSRKAAEEVKRELIKLKVNYYILEESWCVRRSKPGCSMPEIWDVEDPANAGKTPLCNLLVKDSKPHFTTVFQNSVYKVLEVVKE [DPY19L1]	-0.264	0.0231
